Measured values published in patent US20110021974A1, “RETINITIS PIGMENTOSA TREATMENT AND PROPHALAXIS” (priority 2010, published 2011).

What was measured:
[1] = system: macular edema; details: in vivo; cited from earlier work
[2] = Curcumin safety for retina and CNS; details: in vivo
From the text: Deferoxamine may modulate expression and release of inflammatory mediators in the retinitis pigmentosa as indicated in Fenton reaction by specific cell types, thus, reduce or stop the damage by our invention. Deferoxamine used with insulin of our invention along with ophthalmic drops can reduce the ROS oxidant damage, arrest, or delay the processes of retinitis pigmentosa. We have used this method to treat the CNS disease with good results. We have used the extract of Turmeric, called curcumin, with insulin as antioxidant with good results.

[3] = MSM ophthalmic drops in patients; format: in vivo
From the text: We have used aqueous solutions of MSM filtered, sterilized, and mixed with insulin.

[4] = cited from earlier work
[5] = system: retinitis pigmentosa; details: administered in a form suitable to obtain therapeutic tissue concentrations; cited from earlier work
[6] = system: patients with retinitis pigmentosa; details: cited from earlier work
[7] = in vivo; cited from earlier work
[8] = ADT given orally and as eye drops in dry mouth and dry eyes conditions; format: in vivo; details: 25 mg orally and nanograms concentration in eye drops
Method: Follow the instruction as described in the above EXAMPLE 1. Another drug available to treat autoimmune disease related to Sjogren's disease is an organo sulfur compound, anethole dithiolethione (ADT-trade name Sialor, sold over the counter in Canada) with hardly any side effects. The ADT stimulates the secretion of saliva, in patients with autoimmune exocrinopathy (Sjogren's syndrome). Sialor alleviates the symptoms of xerostomia and xeroophthalmia. We have used ADT 25 mg orally and ADT in nanograms concentration in liquid ophthalmic eye drops with successes in these conditions, especially, those on chemotherapy, menopausal women, and chronic smokers with dry mouth and dry eyes conditions.

[9] = system: photoreceptor cell; details: applied topically to the eyes; in vitro model; cited from earlier work
[10] = system: H2O2 induced lipid peroxidation; details: insulin pretreatment; cited from earlier work
[11] = system: retinitis pigmentosa; assay: Insulin ophthalmic drops in oculopathies including retinitis pigmentosa; format: in vivo; details: used for years
From the text: This and other metabolic and therapeutic qualities of the insulin will prevent the development, stop the progression, and curtail or cure the retinitis pigmentosa. I have used insulin ophthalmic drops for various oculopathies, including, retinitis pigmentosa for years with great success.

[12] = Insulin added to anti allergic ophthalmic agents in eye allergy; format: in vivo; details: insulin with vasoconstrictors and anti allergic agents such as corticosteroids
From the text: Follow the instruction as described in the above EXAMPLE 1. The symptoms of an eye allergy are mild to moderate where allergies can be severe during early spring and the beginning of fall. Self treatment to avoid allergens, to irrigate the eyes with saline (salt solution) and to place the ice packs, and the cold water compresses on eyes which this may not be effective in a severe case. The medical treatment is needed to relieve them. Retinitis pigmentosa associated with severe allergic conjunctivitis. This condition isn't helped by other treatments. Conjunctivitis may benefit from specific allergen immunotherapy (desensitization) which the therapy is usually effective. Most commonly used and prescribed medications are: levocabastine (brand name Livostin); antihistamines (antolozine) together with a medicine that constricts blood vessels (naphazoline, phenylephrine); sodium cromoglycate (4%); non-steroidal anti-inflammatory (NSAID) eye drops; and steroids (hydrocortisone, Dexamethasone, prednisolone). Eye drops containing anti allergic, vasoconstrictors, and cortisone, can be used long term to treat retinitis pigmentosa and allergic conditions. The drops with insulin applied before the use of the above described therapeutic agents.

[13] = system: MCF-7 human breast cancer cells; details: in vitro; cited from earlier work
[14] = preliminary studies
[15] = From the text: The present invention formulations contain only 0.10 to 1.00 IU per drop which the dosage can be increased or the dosage can be decreased depending upon the disease states.

CC(=O)Nc1nnc(S(N)(=O)=O)s1 [Acetazolamide]
improving the macular edema compared to brinzolamide [1]: more effective

COc1cc(/C=C/C(=O)CC(=O)/C=C/c2ccc(O)c(OC)c2)ccc1O [Curcumin, curcumin]
toxicity to the retina or the CNS [2]: isn't toxic to the retina or the CNS

CS(C)(=O)=O [MSM, Methylsulfonylmethane]
vision reported by patients ([3]; MSM ophthalmic drops, aged, Lyme disease and cancer patients): their vision had improved
treatment result in retinitis pigmentosa, dry eye syndrome, glaucoma and other oculopathies ([3]; aqueous MSM mixed with insulin, as eye drops): good results
solubility in water [4]: soluble in water

O=C(O)COc1nn(Cc2ccccc2)c2ccccc12 [bendazac, (1-phenylmethyl-1IH-indazol-3-yl) oxy acetic acid]
effect on retinitis pigmentosa [5]: improvement in retinitis pigmentosa

CCCCCCCCCCCCCCCC(=O)OC/C=C(C)/C=C/C=C(C)/C=C/C1=C(C)CCCC1(C)C [vitamin A palmitate]
progression of retinitis pigmentosa ([6]; daily intake of 15000 IU (equivalent to 4.5 mg)): can be reduced

Insulin aspart
Onset of Action in hours [7]: ¼-½

Insulin detemir
Effective duration of action [7]: 14 h
Maximum duration [7]: ~20 h
Onset of Action [7]: 3 to 4 h
Peak action in hours [7]: 6 to 8 h

Insulin glargine
Effective duration of action [7]: 18 to 20 h
Maximum duration [7]: 20 to 24 h
Onset of Action [7]: 3 to 4 h
Peak action in hours [7]: 8 to 16 h

Insulin glulisine
Onset of Action in hours [7]: ¼-½

Insulin lispro
Onset of Action in hours [7]: ¼-½

Regular (soluble): short-acting insulin
Effective duration of action [7]: 3 to 6 h
Maximum duration [7]: 6 to 8 h
Peak action in hours [7]: 2 to 3 h

anethole dithiolethione [ADT]
treatment result in dry mouth and dry eyes conditions [8]: successes

brimonidine tartrate
photoreceptor cell degeneration [9]: can prevent photoreceptor cell degeneration

insulin
H2O2 induced lipid peroxidation [10]: greatly inhibited
treatment result in oculopathies including retinitis pigmentosa [11]: great success
relief of the allergic condition [12]: relieved rapidly
increase of the cytotoxic effect of methotrexate [13]: up to 10,000 fold
absorption from the conjunctival sac [14]: rapidly absorbed
blood sugar levels after local application ([15]; local application incl. scalp, gums, oral and nasal mucosa, conjunctival sac, wounds, tumors): did not change the blood sugar levels
hypoglycemic effects ([15]; ophthalmic insulin drops, applicant's practice): never reported the development of a single case of hypoglycemic effects

vitamin A
postponement of blindness ([6]; vitamin A supplementation): ~10 years
